Results reported in the DeepSol protein solubility set.

experiment: soluble on expression in E. coli; label from the status in PepcDB or PDB records

Sequence	soluble on expression in E. coli
MDHHHHHHHHMPRTTGMNVAVVGGGISGLAVAHHLRSRGTDAVLLESSARLGGAVGTHALAGYLVEQGPNSFLDREPATRALAAALNLEGRIRAADPAAKRRYVYTRGRLRSVPASPPAFLASDILPLGARLRVAGELFSRRAPEGVDESLAAFGRRHLGHRATQVLLDAVQTGIYAGDVEQLSVAATFPMLVKMEREHRSLILGAIRAQKAQRQAALPAGTAPKLSGALSTFDGGLQVLIDALAASLGDAAHVGARVEGLAREDGGWRLIIEEHGRRAELSVAQVVLAAPAHATAKLLRPLDDALAALVAGIAYAPIAVVHLGFDAGTLPAPDGFGFLVPAEEQRRMLGAIHASTTFPFRAEGGRVLYSCMVGGARQPGLVEQDEDALAALAREELKALAGVTARPSFTRVFRWPLGIPQYNLGHLERVAAIDAALQRLPGLHLIGNAYKGVGLNDCIRNAAQLADALVAGNTSHAP	soluble
MSLKDEYTTSFGIRTIEVIPNKGFFLNGKRTSFKGVCNHHDLGPLGGAVNDAAIRRQIRILKDMGCNAIRTSHNMPAPELIRACDEMGMMVMAESFDEWKAMKVKNGYRHVFDEWAVKDLTNLLRHYRNNPSVVMWCIGNEVPEQWDGNKGPKMSYFLQELCHREDPTRPVTQGMDAPDAVVNNNMAAVMDIAGFNYRPHKYQENYKKLPQQIVLGSETASTVSSRGVYKFPVTRQWMKKYDDHQSSSYDVESCSWSNLPEDDFIQHEDLPYCIGEFVWTGFDYLGEPTPYYTDWPSHSSLFGIIDLAGLPKDRYYLYRSHWNKEQETLHILPHWNWEGREGEITPVFVYTNYPSAELFINGKSQGKRTKDLSVTIDNSADSVSIMNLKRQSRYRLMWMDTKYEPGTVKVVAYDADGKAVAEKELHTAGKPDHIELVADRNVIKADGKDLSFVTVRVVDRDGNLCPDASHEISFKVKGEGSYRAGANGNAASLESFQHPKMKVFSGMMTAIVSSTEQPGKITLEATGKGLKKGALIIESCQEAKEGHHHHHH	not soluble
GPVPTPPDNIQVQENFNISRIYGKWYNLAIGSTCPWLKKIMDRMTVSTLVLGEGATEAEISMTSTRWRKGVCEETSGAYEKTDTDGKFLYHKSKWNITMESYVVHTNYDEYAIFLTKKFSRHHGPTITAKLYGRAPQLRETLLQDFRVVAQGVGIPEDSIFTMADRGECVPGEQEPEPILIPRV	soluble
MNKILLVDDDRELTSLLKELLEMEGFNVIVAHDGEQALDLLDDSIDLLLLDVMMPKKNGIDTLKALRQTHQTPVIMLTARGSELDRVLGLELGADDYLPKPFNDRELVARIRAILRRSHWSEQQQNNDNGSPTLEVDALVLNPGRQEASFDGQTLELTGTEFTLLYLLAQHLGQVVSREHLSQEVLGKRLTPFDRAIDMHISNLRRKLPDRKDGHPWFKTLRGRGYLMVSAS	soluble
MALLERILARDNLITALKRVEANQGAPGIDGVSTDQLRDDVRAHWSTIRAQLLAGTYRPAPVRRVEIPKPGGGTRQLGIPTVVDRLIQQAILQELTPIFDPDFSPSSFGFRPGRNAHDAVRQAQGYIQEGYRYVVDMDLEKFFDRVNHDILMSRVARKVKDKRVLKLIRAYLQAGVMIEGVKVQTEEGTPQGGPLSPLLANILLDDLDKELEKRGLKFCRYADDCNIYVKSLRAGQRVKQSIQRFLEKTLKLKVNEEKSAVDRPWKRAFLGFSFTPERKARIRLAPRSIQRLKQRIRQLTNPNWSISMPERIHRVNQYVMGWIGYFRLVETPSVLQTIEGWIRRRLRLCQWLQWKRVRTRIRELRALGLKETAVMEIANTRKGAWRTTKTPQLHQALGKTYWTAQGLKSLTQRYFELRQG	not soluble
MFIESRELVMKHRIPVAKTERYWKGLEEGKVFKTVCKSCGKEHHPPRAECLCGGEVEWVEITGEGVVEAFTTVHTIPAGFEWHREPYTIAIARFGEVRVMGWAKEVRVGDVVRLKPGKDETGVWKVYFEVV	not soluble
MSKIARKDVERLIELVGGPDNIASVSHCLTRLRFVLNDTDKADTKQLEALRMVKGCFTNAGQFQVVIGTEVDEVYKVLIELSGKSEASKDESKNAARQNMNIVERGISHLAE	not soluble
MLNTILVALDGSEIAERVIQTLGYLVLSPNTNVILCHVFPAPESEIELPADRPQPDLPNFSYFNIDKQMQSYQERLSVKSELELVMGDPADEIIRLANIYKADLVVIGSRGLTGMNRIVQGSVSTQVMEAANCSVLVVKPARN	not soluble
MSLNIKDEHIDSVCSLLDQLVGNVSFKNLFTGYGLFHKEETMFAIWQNKKLYLRGEGVLAIQLTKLGCEPFTTNELNKRFVLSQYYALSDQILRSNRLCRKLIILSIKQILEQKLECTLRKLNRLKDLPNLTIKHERALIKVGITNVAMLREIGAENALVELKKSGSGATLDFYWKLVCALQNKNSQMLSQAEKERLLKKLNEVWRKNGLKGYRKLDDEEGHHHHHH	soluble
MKKYVCTVCGYEYDPAEGDPDNGVKPGTSFDDLPADWVCPVCGAPKSEFEAA	soluble
MSLKLARINLSRDDIHKRLGGGIPYGSIILVEGEESTGKSIIAQRLAYGFLQTAHSVTYTSTQLTTLEFVKQMMSLNYNINKKLLSGTLLYIPVYPLISDNTQKDDFIKKIMETRAFYEKDIVIFDSLSSLIVNDASDIKVNDLMAFFKRIASMNKVIIYTINPKELPESILTLLRSSATMVLKTEIYTFGGNIKNLVKIEKYNLAQGPFQKLMVFRVEPKLGIAVEISSVAEGHHHHHH	soluble
GMQTKVINFNDKFSLFNQHWSPRVIAEMNDYQFKLVKVEGEFVWHEHADTDEVFIVMEGTLQIAFRDQNITLQAGEMYVIPKGVEHKPMAKEECKIMIIEPR	soluble
MYNGYADVDDLHVYVYCGNTPELRLQELVADVKITIQPENEKSCCIKKFLSLKDNKFESIAMSADFGDFDEMVYNYAIDGKCTIEADITIIKEVGDARAKLRDFGEETRDVSDVVINVQNEKFHVSKMFLAAQSSHFKLLFKNSNDSEIALDGIIPEDFQNFLELLYGEPALTEDSVEGILQIAARFDVSTVIRKGEDFLLQKSEFSPEKKLQMSLKYNLENLKSKCLSEVKSVADIRSVLPKDIKEMDHSVMAELLEKSLGLQKT	not soluble
MDYKDDDDKLVDSLRACVFDAYGTLLDVHSAVMRNADEVGASAEALSMLWRQRQLEYSWTRTLMHQYADFWQLTDEALTFALRTYHLEDRKGLKDRLMSAYKELSAYPDAAETLEKLKSAGYIVAILSNGNDEMLQAALKASKLDRVLDSCLSADDLKIYKPDPRIYQFACDRLGVNPNEVCFVSSNAWDLGGAGKFGFNTVRINRQGNPPEYEFAPLKHQVNSLSELWPLLAKNVTKAA	soluble
CKLCLGEYPVEQMTTIAQCQCIFCTLCLKQYVELLIKEGLETAISCPDAACPKQGHLQENEIECMVAAEIMQRYKKLQFER	soluble
MIRVKRLDHVQICIPFGAEDEARAFYTGVLGFQEIEKPESLKGNGGLWYKVGDIQLHIGAENRDGYNSKSHPAFEVEDVEAARRYLEEHGVATQDEKPIPGVKRFSFRDPFRNRIELLEKIM	not soluble
GHMASNVANDGERPSRVVELTDETFDSIVMDPEKDVFVLYYVPWSRHSVAAMRLWDDLSMSQSQKRNHLTFVAARIDGEKYPDVIERMRVSGFPTMRYYTRIDKQEPFEYSGQRYLSLVDSFVFQNT	soluble
MGSDKIHHHHHHMQNWLKQITTGAMIGTTVLVTSACTMRLSESTFIASDEVPVAFTAEFTQQLQQAMPNHLITPLSLEASDHVKLNGFYIDNPNSLTTLVFYQGNGMKIEPHGLSVLTTLSTLNTDILVMDRRGLGASEGQPSINNIIADAQQQLDYLHQQYQPEKVILHGYSLGSFIAADLAKNNKIDALILHGSATNADDWVDEKTPWYMAPFMTLEMPEDFRKTDNKQVVAQYYQGPLLVIAAEEDEEVPPELSEKLFVASQSANKQLIMVPNVGHQGMLDDANTMSQYQTFITEL	not soluble
MTEPFIVRRETQIAAPRATVFAYLTDPEKILSWMGSDATTEPHPGGLYLLKGIGPRGAAARGAFREVVPVHRLAYTFGWEGGQEVPPGSSLIEIDLIERDGGTLLRMTHSGLPTEEQAAAHAKGWAHYLERLTTAAAGNDPGPDNGVSTKSLEHHHHHH	soluble
MGSDKIHHHHHHMQVRTFKGPSAKTVLDMIKAEIGPEAVILSSRDCSGDGVTWCEMTVGVEREAAAAPRMGRDEPAAGDQTPPAGWDEWHREWDEIKGHIMALMKPALRLDELAPRQRVALEYLEREGVEDNVILALYRRLRGAPSLSVLEPLSAVVPVKGWGGADWPQKMQIVCGPSGVGKTSAVVRMALALRRQNAGVRICVLNADSQRGSGRMVLRHYAELCGMGYHEISGPADAAALLGELDGYDKILVDTPVPGRGATLRSLLEETGLDVLEQQVPAAVQLVMSPLYGDAQISFFLRQYECGLPCGLVWTKLDEACNFGALINVPAASGLPVTALSFGSGLKNSLASARGTMIWRLVFKKQLPGDVAAR	not soluble
MNRLPRIEQYGLIGDTQTSAHVCDDGSIDWLCLPRFDSPAVFASLLGTQKHGSWQISPAPSTGRSGPEKVTERRYRGDSLVLESVWRTPTGSVRVLDFMPPRDGTPQVIRIVEGLTGDVEMLSAMRPRPGYLEHHHHHH	not soluble
MKTLQDSIIFRHGAKIKGRIVQPPMLTNSGNDGYVTQDALDYYAARSQSAGMIIVEYTTVSENGGPSRSWARDREQLTIYDDKFKPGMAKLATVIKKMGIKLYYNWSIPVEKLIISLNWVSRFMHQVR	not soluble
MFTYSLNLKLKTDRNFFGPGVVEVLQKIQQTGSLNLAAKEMKMSYNKAWRIVRVAEEELSFPLIIKSVGGCNGGGSIVTDQGKELIDQYLLFEKKVYQQVEACFEEIFKEQDVVSEELK	not soluble
QALIKEARLTPKPGLVDSTNNGSHQDMSLSTFEQSAIALRPFFTQFVLMGIETTNLPDSHILSKIRPLGLQAEQAMFVATNQVNTHKGAIFAFGLVCTALGRHFSRWQNKMMSSPSFEISQDTTGISLISETVARFTQGITDELKNYSKNQPLTAGITLYQQYGFTGARGEAEKGFPLVQQAVVFILSQAESEMRWYWALLYLMANNNDTNIVHRGGINGLQFIQDEAHKRLGNAKNLQNANALMASLREFDDDCIARNLSPGGSADLLALTIFFLSLLYC	not soluble
SLSKLMLRHKAKKIDHVAIAVLDLEQAIGYFSMMGFTLSDRMTTTGAHSAMHSAVMEAGPIKFVLLEGANETSQITRFINEYGPGPQHIAIEVENVESLCKELEKQGLDFSTKTIKGPELIQRFTVRCPNSGVMIEFIERNEEEGFSEQNVEDLFRQLEASDAYEG	soluble
MTKRIEIKPATAADQAALAEIYLVDRQQDFPWVTDPQLQDFNEDSRGEFVLVAWIDGQRAGFCSLYRLANFIHLLFVAPDFRHLKVGERLLTEMRQYATEPLTLKCVMANENALRFYAQVGFRIVKADADALPPNYTLRDTHTEQYVALVDVMANERKLN	soluble
MSLADPADISAASRSVVRVVIIESDGDRANLITHGTGFAVTPNLIVTNAHVVEELRRDDTLIAGVVPAEGRNGFPAKLVAYSPGNDLALLRIEGGGSITPITLFPGAPGDGSEVYAVGYPGNVDLAQGLSMADLVTPQAAVKTRGYLSGGRSSRSFDTLLHTAPLGSGNSGGPLLDSCGRVIGVNSFGTVSDNSTDSAFYFAISMRELSAFLRRANVDAHTSGLPCRSIADLDRAEAERAAGEQARLAAQTAAQADAKQRAMDKARRDAELAILSERDNGEGHHHHHH	soluble
